Test results published in the Human Domainome abundance scans (Beltran et al. 2025).

B1: Segment polarity protein dishevelled homolog DVL-3, residues 2 to 81; numbered along this chain, Q92997 (parent)
chain: GETKIIYHLDGQETPYLVKLPLPAERVTLADFKGVLQRPSYKFFFKSMDDDFGVVKEEISDDNAKLPCFNGRVVSWLVSA
B2: Nucleosome-remodeling factor subunit BPTF, residues 2862 to 2918; numbered along this chain, Q12830 (parent)
chain: TKKDTKLYCICKTPYDESKFYIGCDRCQNWYHGRCVGILQSEAELIDEYVCPQCQST

Variants of: B1
Assay: abundance fitness (aPCA) (normalised: wild type 0, dead -1); higher = more abundant; growth selection in yeast, the domain comes from the species named
Settings: Homo sapiens

Abundance fitness: each site, then its substitutions
E2: A -0.511 | C -0.038
G1: N -0.444 | T -0.198 | K 0.191 | D -0.205 | Y -0.124 | Q -0.035 | L -0.132 | F 0.109 | I -0.324 | P 0.022 | A -0.084 | C -0.13 | R -0.179 | W -0.222 | M -0.074

Variants of: B2
Assay: as above
Settings: Homo sapiens

Abundance fitness of substitutions, site by site:
E44: L -0.11 | I -0.193 | C -0.137 | R -0.045 | Q -0.086 | W -0.408 | F -0.089 | T -0.165 | V -0.123 | A -0.001 | D 0.027 | S -0.048 | P -0.097 | M -0.089 | N -0.116 | K -0.018
I38: N -0.547 | G -0.489 | K -0.278 | P -0.428 | L -0.014 | M -0.084 | T -0.146 | W -0.46 | H -0.342 | R -0.234 | Y -0.059
P52: C -0.186 | Y -0.327 | S 0.054 | Q -0.033 | D 0.113 | A -0.058 | K 0.126 | I -0.108 | W -0.345 | V -0.017 | E 0.009 | G -0.019 | F 0.032 | T -0.071 | M -0.149 | L -0.125 | R -0.048
C54: N -0.802 | H -0.512 | K -0.613 | W -0.802 | D -0.819 | F -1.06 | V -0.934 | G -0.755 | M -0.648 | A -0.851 | P -0.64 | Y -0.983 | R -0.875 | I -1.06 | T -1.01 | E -0.776 | S -0.889
V50: L 0.015 | A -0.252 | H -0.288 | D -0.268 | N -0.203 | G -0.672 | I -0.013 | Y -0.357 | C -0.228 | P -0.558 | T 0.037 | R -0.145 | W -0.156 | E 0.132 | K -0.102 | M -0.159 | Q -0.191 | S -0.167 | F -0.099
S56: F -0.063 | R 0.074 | Y -0.191 | G -0.195 | N 0.269 | K -0.03 | W -0.554
L39: A -0.306 | F -0.006 | V -0.286 | R -0.033 | T -0.08 | E 0.225 | W -0.326 | P 0.102 | S -0.024 | D -0.062 | G -0.116
Q40: P -0.2 | E -0.036 | F -0.201 | M -0.244 | A -0.072 | G -0.062 | C -0.12 | I -0.378 | V -0.19 | L -0.282 | Y -0.306 | N -0.296 | S -0.049 | D -0.126 | W -0.371 | K -0.214 | H 0.002 | T -0.127
E48: W -0.295 | A -0.008 | Y -0.125 | R 0.055 | S 0.051 | C -0.009 | F -0.262 | H -0.062 | V -0.022 | L -0.139 | P 0.086 | K -0.109 | N 0.076 | G -0.112 | T -0.002 | I -0.063 | Q -0.161
C51: M -0.688 | T -0.981 | R -0.743 | A -0.777 | P -0.919 | F -0.916 | N -0.904 | L -0.889 | Y -0.928 | K -0.774 | H -0.848 | S -0.53 | I -1.08 | E -0.75 | D -0.718 | Q -0.98
Y49: W -0.055 | A -0.382 | Q -0.615 | C -0.761 | P -0.494 | L -0.36 | G -0.526 | R -0.47 | H -0.491 | T -0.447 | V -0.381 | S -0.427 | M -0.481 | F -0.069 | D -0.715
T57: S 0.068 | V -0.052 | I -0.115 | M -0.509 | L -0.569 | Q -0.469 | E -0.022 | H -0.172 | R -0.106 | A 0.024 | P -0.044 | C -0.003 | G -0.16 | Y -0.33
S41: E 0.017 | M -0.137 | D -0.071 | L -0.198 | N 0.038 | T 0.069 | F -0.173 | P -0.106 | Y -0.132 | C -0.213 | I -0.507 | G -0.105 | A -0.146 | K -0.015 | H -0.152 | R 0.019 | W -0.207 | Q -0.07
I46: D -0.365 | M -0.037 | L -0.027 | N -0.098 | G -0.254 | R -0.045 | H -0.11 | S -0.095 | Y -0.282 | A -0.176 | T 0 | F -0.163 | V -0.073 | P -0.03 | E -0.228 | W -0.154 | Q -0.058 | C -0.483
Q53: S -0.092 | G 0.028 | T 0.054 | L -0.047 | D 0.037 | N 0.078 | C -0.16 | E -0.009 | K -0.122 | M -0.139 | I 0.09 | R -0.078 | W -0.25 | P -0.054 | H -0.017 | Y -0.266 | A -0.052
D47: T -0.051 | R -0.044 | S -0.053 | H 0.134 | A 0.003 | V -0.138 | W -0.326 | E 0.101 | L -0.058 | N -0.03 | F -0.219 | G 0.054 | C -0.043 | M -0.14 | K 0.089 | Q 0.077 | P -0.107 | I -0.227
Q55: F -0.375 | G -0.187 | H -0.167 | E 0.01 | M -0.188 | V -0.18 | N -0.09 | C -0.072 | W -0.245 | R -0.142 | I -0.141 | L -0.157 | P -0.101 | T -0.196 | Y -0.474 | D 0.174 | A -0.025 | K 0.021
E42: V -0.269 | K -0.083 | L -0.468 | N -0.279 | F -0.274 | C -0.129 | Q -0.021 | T -0.37 | Y -0.304 | S -0.205 | G -0.294 | M -0.288 | P -0.342 | D -0.003 | W -0.539 | R -0.403 | A -0.099
L45: G -0.053 | Y -0.179 | A -0.111 | K -0.018 | W -0.185 | M -0.219 | H 0.101 | N -0.017 | S -0.075 | T -0.03 | R 0.04 | D -0.04 | V -0.001 | P -0.309 | I -0.128
A43: G -0.028 | R -0.076 | H 0.013 | M -0.13 | L -0.144 | D -0.392 | W -0.182 | T -0.148 | E -0.226 | Q 0 | I 0.016 | N -0.251 | S -0.119 | V -0.036 | F -0.17 | K -0.025 | P -0.167 | Y -0.074
